Experimental data reported in US12589171B2, “177-Lu labeled peptide for site-specific uPAR-targeting” (priority 2012, dated 2026).
Read-outs that look alike come from different tables or passages of the source. Blank lines part the entries; values can stand above or below the compound they belong to. Residues, ends and D or L forms follow the SMILES beside them.

How the values were obtained:
human uPAR = molecular target: T1, human uPAR (Homo sapiens, UniProt Q03405); experiment: Ligand:uPAR interaction in vitro (binding affinity); details: binding affinity towards human uPAR
T1 construct: made in house
T1 sequence (Q03405 23-305): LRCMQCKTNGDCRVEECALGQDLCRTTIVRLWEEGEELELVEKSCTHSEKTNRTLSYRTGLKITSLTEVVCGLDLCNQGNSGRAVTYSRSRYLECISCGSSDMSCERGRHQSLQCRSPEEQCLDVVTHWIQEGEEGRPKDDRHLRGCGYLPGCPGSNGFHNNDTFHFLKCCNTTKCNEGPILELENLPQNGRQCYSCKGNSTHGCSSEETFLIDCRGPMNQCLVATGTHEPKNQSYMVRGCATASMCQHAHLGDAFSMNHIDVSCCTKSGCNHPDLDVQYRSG
Text: In table 2, the amino acids sequences of each peptid conjugate with the corresponding binding affinity towards human uPAR are shown. Residues in bold is important for the interaction with uPAR. A substitution of two of these important amino acids (Phe^3 and Trp^8) with Glu, results in a complete loss of affinity towards uPAR. […] Importantly, no reduction in affinity is caused by conjugation of DOTA chelator in the N-terminal, illustrated with identical IC50-value between the un-conjugated peptide AE105 and the conjugated form DOTA-AE105.

[1] = set-up: species or system NMRI nude mice; details: mouse, in vivo
Text: The organ uptake values, were time integrated to obtain the residence time per gram tissue for dosimetry calculations. Integration between time 0 and 24 hr was made by the trapezoid method. All time points were used to fit to a double exponential function (2-compartment model), which was used to estimate the residence time from 24 hr to infinity. The extrapolated area was in all organs/tissues <17% of the total calculated area, except kidneys (36.1%) and spleen (30.0%). The radioactive decay of ^177Lu produces mainly low energy […]. The S value for a 1 g sphere (0.0233 mGy/MBq s) was used to calculate the organ doses by multiplying it to the organ residence values as previously described. Based on the biodistribution data of ^177Lu-DOTA-AE105, estimates of the dosimetry were calculated (Table 1). […] However, the uPAR-positive fraction of the HT-29 tumor have previously been found only to be located in periphery of the tumor[25]. […] With this is mind and with the knowledge of the small penetration range of ^177Lu beta radiation (<2 mm), the present inventors calculated an estimate of local uPAR-positive tumor fraction dosimetry of approximate 58 mGy/MBq, thus resulting in the highest exposure for all organs/tissue investigated.

HT-29 tumor xenograft = experiment: Biodistribution in Nude mice bearing HT-29 tumor xenograft (gamma-counter); type: in vivo, NMRI nude mice; details: mouse, in vivo
Description: (§1) Mice were sacrificed at 0.5, 1.0, 2.0, 4.0 and 24.0 h after injection, and a panel of organs, including blood drawn from the heart, was collected, weighed, and analyzed for radioactive content. Mean percent injected dose per gram (% ID/g)±SEM from three mice at each point is presented. A. Chemical structure of ^177Lu-DOTA-AE105. B(top) Biodistribution of ^177Lu-DOTA-AE105 in selected organs/tissues between 0.5 and 24.0 h. B (bottom). […] HT-29 colorectal cancer cells were obtained from the American Type Culture Collection (Manassas, VA, USA) and culture media was obtained from Invitrogen Co. (Carlsbad, CA, USA). The cell line was cultured in Mc.Coy's standard medium supplemented with 10% (v/v) fetal bovine serum and 1% (v/v) penicillin/Streptomycin at 37° C. and 5% CO2. Xenografts of human HT-29 colorectal cancer cells was established by injection of 200 μl cells (1×10^8 cells/ml) suspended in 100 μl Matrigel (BD Biosciences, San Jose, CA, USA), subcutaneously in the left and right flank of female NMRI nude mice obtained from Taconic, under anesthesia by Hypnorm/doricum (Study day −3). All animal experiments were performed under a protocol approved by the Animal Research Committee of the Danish Ministry of Justice. Biodistribution study was performed as previously described. In brief, Nude mice bearing HT-29 xenografts were injected in the tail-vein with 2-3 MBq of ^177Lu-DOTA-AE105 or ^177Lu-DOTA-AE105mut. All mice were euthanized after 0.5, 1, 2, 4 and 24 hr post tracer injection. Blood, tumor and major organs were collected (wet-weight) and the radioactivity was measured using a γ-counter from Perkin Elmer, MA, USA (N=4 mice/group).

[2] = as above; type: in vivo, NMRI nude mice; details: female, NMRI nude, mouse, iv, total radioactivity
Description: as §1

[3] = Toxicity in HT-29 therapy study (body weight, kidney H&E, deaths); type: in vivo, NMRI nude mice
Text: Results are presented as the mean±SEM, n=6 animals/group. B, H&E staining of kidney sections representing kidney epithelia (top) and glomerulus (Bottom) from each treatment group. […] One pair of kidneys from one animal/group was stained. Scale bar=25 μm, 40× zoom.
Three days after tumor cell inoculation (study day 0), 18 nude mice bearing the human colorectal carcinoma xenograft HT-29 in each flank were randomly divided into three groups consisting of 6 animals each. All animals in each group were first baseline PET/CT scanned with ^18F-FLT (day 0) before being dosed with 20 MBq of either ^177Lu-DOTA-AE105, ^177Lu-DOTA-AE105mut or vehicle. Subsequently, PET/CT scans of all mice in each group were repeated with ^18F-FLT on study day 1, 3 and 6. Second treatment dose (20 MBq) was administrated on day 7, followed by CT-scan day 8, 10 and 14 to measure tumor volumes using manual ROI drawing on the reconstructed images. On day 14, all animals were euthanized and tumors and kidneys were collected and kept for further analysis at −80° C.
uPAR ELISA on resected HT-29 tumors was done as described previously in detail. All results were performed as duplicate measurements. Expression of uPAR in formalin fixed and paraffin embedded tumor tissue was evaluated by immunohistochemical staining (FIG. 7) as previously published. A general histopathology examination was performed on H&E stained kidney tissue (one pair of kidneys from one animal from each treatment group) and performed by a trained pathologist (ODL).

IC50 (human uPAR): 6.7 nM
SMILES: CC(C)C[C@H](NC(=O)[C@H](Cc1ccc(O)cc1)NC(=O)[C@@H](CCCNC(=N)N)NC(=O)[C@@H](CO)NC(=O)[C@H](Cc1ccccc1)NC(=O)[C@H](CC1CCCCC1)NC(=O)[C@@H](N)CC(=O)O)C(=O)N[C@@H](Cc1c[nH]c2ccccc12)C(=O)N[C@@H](CO)C(N)=O [AE105, Asp^1-Cha^2-Phe^3-ser^4-arg^5-Tyr^6-Leu^7-Trp^8-Ser^9]

SMILES: CC(C)C[C@H](NC(=O)[C@H](Cc1ccc(O)cc1)NC(=O)C(CCCNC(=N)N)NC(=O)C(CO)NC(=O)C(Cc1ccccc1)NC(=O)[C@H](CC1CCCCC1)NC(=O)[C@H](CC(=O)O)NC(=O)CN1CCN(CC(=O)O)CCN(CC(=O)O)CCN(CC(=O)O)CC1)C(=O)N[C@@H](Cc1c[nH]c2ccccc12)C(=O)N[C@@H](CO)C(N)=O (stereo partly shown) [^177Lu-DOTA-AE105, metal not drawn]
Dosimetry Blood [1]: 4.9 mGy/MBq
Dosimetry Bone [1]: 1.8 mGy/MBq
Dosimetry Brain [1]: 0.4 mGy/MBq
Dosimetry Heart [1]: 2.0 mGy/MBq
Dosimetry Intestine [1]: 2.9 mGy/MBq
Dosimetry Kidney [1]: 52.9 mGy/MBq
Dosimetry Liver [1]: 2.4 mGy/MBq
Dosimetry Muscle [1]: 1.2 mGy/MBq
Dosimetry Spleen [1]: 5.5 mGy/MBq
Dosimetry Tumor [1]: 5.8 mGy/MBq
% ID/g Tumor (HT-29 tumor xenograft; female, NMRI nude, iv, 4 h): 0.176 % ID/g
clearance from blood and organs (HT-29 tumor xenograft): fast clearance rate from blood and all organs investigated
tissue to tissue ratio at 1 h ([2]; in vivo): 12
tissue to tissue ratio at 24 h ([2]; in vivo): 3.3
tissue uptake at 0.5 h ([2]; in vivo, % ID/g Blood): 2.71 %ID/g
tissue uptake at 1 h ([2]; in vivo, % ID/g Blood): 0.282 %ID/g
tissue uptake at 2 h ([2]; in vivo, % ID/g Blood): 0.173 %ID/g
tissue uptake at 4 h ([2]; in vivo, % ID/g Blood): 0.043 %ID/g
tissue uptake at 24 h ([2]; in vivo, % ID/g Blood): 0.005 %ID/g
tissue uptake at 0.5 h ([2]; in vivo, % ID/g Bone): 0.696 %ID/g
tissue uptake at 1 h ([2]; in vivo, % ID/g Bone): 0.699 %ID/g
tissue uptake at 2 h ([2]; in vivo, % ID/g Bone): 0.267 %ID/g
tissue uptake at 4 h ([2]; in vivo, % ID/g Bone): 0.258 %ID/g
tissue uptake at 24 h ([2]; in vivo, % ID/g Bone): 0.32 %ID/g
tissue uptake at 0.5 h ([2]; in vivo, % ID/g Brain): 0.075 %ID/g
tissue uptake at 1 h ([2]; in vivo, % ID/g Brain): 0.038 %ID/g
tissue uptake at 2 h ([2]; in vivo, % ID/g Brain): 0.026 %ID/g
tissue uptake at 4 h ([2]; in vivo, % ID/g Brain): 0.019 %ID/g
tissue uptake at 24 h ([2]; in vivo, % ID/g Brain): 0.005 %ID/g
tissue uptake at 0.5 h ([2]; in vivo, % ID/g Heart): 0.757 %ID/g
tissue uptake at 1 h ([2]; in vivo, % ID/g Heart): 0.143 %ID/g
tissue uptake at 2 h ([2]; in vivo, % ID/g Heart): 0.082 %ID/g
tissue uptake at 4 h ([2]; in vivo, % ID/g Heart): 0.05 %ID/g
tissue uptake at 24 h ([2]; in vivo, % ID/g Heart): 0.017 %ID/g
tissue uptake at 0.5 h ([2]; in vivo, % ID/g Intestine): 0.579 %ID/g
tissue uptake at 1 h ([2]; in vivo, % ID/g Intestine): 0.196 %ID/g
tissue uptake at 2 h ([2]; in vivo, % ID/g Intestine): 0.271 %ID/g
tissue uptake at 4 h ([2]; in vivo, % ID/g Intestine): 0.289 %ID/g
tissue uptake at 24 h ([2]; in vivo, % ID/g Intestine): 0.078 %ID/g
tissue uptake at 0.5 h ([2]; in vivo, % ID/g Liver): 0.686 %ID/g
tissue uptake at 1 h ([2]; in vivo, % ID/g Liver): 0.249 %ID/g
tissue uptake at 2 h ([2]; in vivo, % ID/g Liver): 0.243 %ID/g
tissue uptake at 4 h ([2]; in vivo, % ID/g Liver): 0.284 %ID/g
tissue uptake at 24 h ([2]; in vivo, % ID/g Liver): 0.149 %ID/g
tissue uptake at 0.5 h ([2]; in vivo, % ID/g Muscle): 0.58 %ID/g
tissue uptake at 1 h ([2]; in vivo, % ID/g Muscle): 0.084 %ID/g
tissue uptake at 2 h ([2]; in vivo, % ID/g Muscle): 0.047 %ID/g
tissue uptake at 4 h ([2]; in vivo, % ID/g Muscle): 0.053 %ID/g
tissue uptake at 24 h ([2]; in vivo, % ID/g Muscle): 0.01 %ID/g
tissue uptake at 0.5 h ([2]; in vivo, % ID/g Spleen): 0.924 %ID/g
tissue uptake at 1 h ([2]; in vivo, % ID/g Spleen): 0.262 %ID/g
tissue uptake at 2 h ([2]; in vivo, % ID/g Spleen): 0.222 %ID/g
tissue uptake at 4 h ([2]; in vivo, % ID/g Spleen): 0.303 %ID/g
tissue uptake at 24 h ([2]; in vivo, % ID/g Spleen): 0.109 %ID/g
tissue uptake at 0.5 h ([2]; in vivo, % ID/g Tumor): 1.78 %ID/g
tissue uptake at 1 h ([2]; in vivo, % ID/g Tumor): 0.614 %ID/g
tissue uptake at 2 h ([2]; in vivo, % ID/g Tumor): 0.17 %ID/g
tissue uptake at 4 h ([2]; in vivo, % ID/g Tumor): 0.17 ± 0.02 %ID/g
tissue uptake at 24 h ([2]; in vivo, % ID/g Tumor): 0.057 %ID/g
tissue uptake at 0.5 h ([2]; kidney, Kidney, 0.5 h after injection, read-out: % ID/g Kidney): 6.17 %ID/g
tissue uptake at 1 h ([2]; kidney, Kidney, 1.0 h after injection, read-out: % ID/g Kidney): 2.44 %ID/g
tissue uptake at 2 h ([2]; kidney, Kidney, 2.0 h after injection, read-out: % ID/g Kidney): 1.91 %ID/g
tissue uptake at 4 h ([2]; kidney, Kidney, 4.0 h after injection, read-out: % ID/g Kidney): 1.67 %ID/g
tissue uptake at 24 h ([2]; kidney, Kidney, 24 h after injection, read-out: % ID/g Kidney): 0.839 %ID/g
premature deaths ([3]; HT-29 study): No animals died prematurely

SMILES: CC(C)C[C@H](NC(=O)[C@H](Cc1ccc(O)cc1)NC(=O)[C@@H](CCCNC(=N)N)NC(=O)[C@@H](CO)NC(=O)[C@H](CCC(=O)O)NC(=O)[C@H](CC1CCCCC1)NC(=O)[C@H](CC(=O)O)NC(=O)CN1CCN(CC(=O)O)CCN(CC(=O)O)CCN(CC(=O)O)CC1)C(=O)N[C@@H](CCC(=O)O)C(=O)N[C@@H](CO)C(N)=O [DOTA-AE105mut, DOTA-Asp-Cha-Glu-(D)Ser-(D)Arg-Tyr-Leu-Glu-Ser-CONH2] (HELM PEPTIDE1{[O=C(O)CN1CCN(CC(=O)O)CCN(CC(=O)[*:2])CCN(CC(=O)O)CC1].D.[Cha].E.[dS].[dR].Y.L.E.S.[am]}$$$$V2.0)
IC50 (human uPAR): > 10 nM

SMILES: CC(C)C[C@H](NC(=O)[C@H](Cc1ccc(O)cc1)NC(=O)[C@@H](CCCNC(=N)N)NC(=O)[C@@H](CO)NC(=O)[C@H](CCC(=O)O)NC(=O)[C@H](CC1CCCCC1)NC(=O)[C@H](CC(=O)O)NC(=O)CN1CCN(CC(=O)O)CCN(CC(=O)O)CCN(CC(=O)O)CC1)C(=O)N[C@@H](CCC(=O)O)C(=O)N[C@@H](CO)C(N)=O [^177Lu-DOTA-AE105mut, metal not drawn, reference compound] (HELM PEPTIDE1{[O=C(O)CN1CCN(CC(=O)O)CCN(CC(=O)[*:2])CCN(CC(=O)O)CC1].D.[Cha].E.[dS].[dR].Y.L.E.S.[am]}$$$$V2.0)
tissue uptake at 0.5 h ([2]; in vivo, % ID/g Blood): 0.959 %ID/g
tissue uptake at 0.5 h ([2]; in vivo, % ID/g Bone): 0.39 %ID/g
tissue uptake at 0.5 h ([2]; in vivo, % ID/g Brain): 0.081 %ID/g
tissue uptake at 0.5 h ([2]; in vivo, % ID/g Heart): 0.278 %ID/g
tissue uptake at 0.5 h ([2]; in vivo, % ID/g Intestine): 0.2 %ID/g
tissue uptake at 0.5 h ([2]; in vivo, % ID/g Kidney): 3.01 %ID/g
tissue uptake at 0.5 h ([2]; in vivo, % ID/g Liver): 0.228 %ID/g
tissue uptake at 0.5 h ([2]; in vivo, % ID/g Muscle): 0.235 %ID/g
tissue uptake at 0.5 h ([2]; in vivo, % ID/g Spleen): 0.163 %ID/g
tissue uptake at 0.5 h ([2]; in vivo, % ID/g Tumor): 0.708 %ID/g
animal body weight between treatment groups ([3]; mouse, in vivo): No significant differences in the mean body weights
kidney histopathology (H&E staining) ([3]; mouse, in vivo): no gross macroscopic morphological changes
